Results as given in patent US8278063B2, “Methods for degrading toxic compounds” (Commonwealth Scientific and Industrial Research Organisation, priority 2007, dated 2012).

Legend:
COC(=O)Nc1nc2ccccc2[nH]1 = experiment: purified protein, by the assay type; conditions: other: purified MheI, 1-40 μM carbendazim, 200 mM sodium phosphate buffer, 22° C.
Method: (§1) Enzyme assays were performed in 96 well microtiter plates (Agilent catalogue number) at 22° C. The assay mixture typically contained 20 μg bovine serum albumin, 0.022 μg purified MheI and 1-40 μM carbendazim in a final volume of 200 μl of 200 mM sodium phosphate buffer. Enzymatic reaction was stopped by adding 5 μl of formic acid after 10 minutes and the initial velocities were measured using HPLC. All these assays were performed in triplicate.

MheI = MheI (Nocardioides sp., UniProt C8CP46); experiment: Enzyme assays and determination of kinetic constants of purified MheI (HPLC); conditions: 1-40 μM carbendazim, 200 mM sodium phosphate buffer, 22° C.
Chain of MheI (C8CP46 whole entry): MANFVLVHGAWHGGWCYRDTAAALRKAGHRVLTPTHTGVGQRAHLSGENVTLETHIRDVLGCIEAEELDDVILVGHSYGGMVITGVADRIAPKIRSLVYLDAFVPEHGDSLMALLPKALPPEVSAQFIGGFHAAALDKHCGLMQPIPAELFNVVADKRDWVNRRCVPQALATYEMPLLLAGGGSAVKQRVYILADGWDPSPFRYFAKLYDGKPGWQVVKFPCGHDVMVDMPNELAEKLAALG
Method: as §1

Row | Molecule | Km (COC(=O)Nc1nc2ccccc2[nH]1) [µM] | kcat (COC(=O)Nc1nc2ccccc2[nH]1) [per second] | Km (MheI) [µM]
1 | MheI (Nocardioides sp. SG-4G) | 6.1 | 120 | 
2 | COC(=O)Nc1nc2ccccc2[nH]1 [carbendazim] |  |  | 6.1
